How the values were obtained:
[1] = molecular target: genetically engineered calmodulin (CaM) with cysteine on N-terminus (UniProt P0DP23); test: atomic force microscopy (height of the immobilised protein pattern); CaM immobilised by cysteine-Hg-SH coupling on MUTMS patterns on OTS-coated silicon; soaked 10 min in CaM KI binding domain solution at 4 °C, rinsed with buffer; imaged in air, ac mode, 75% relative humidity, 25 °C; height from topography histograms
[2] = molecular target: genetically engineered calmodulin (CaM) with cysteine on N-terminus (UniProt P0DP23); test: atomic force microscopy (height of the immobilised protein pattern); CaM immobilised by cysteine-Hg-SH coupling on MUTMS patterns on OTS-coated silicon; soaked 10 min in 1 g mL^-1 CaM KI binding domain solution at 4 °C, rinsed with buffer; imaged in air, ac mode, 75% relative humidity, 25 °C; height from topography histograms

Calmodulin-dependent protein kinase I (299-320) binding domain (from UniProt Q63450 299-320) (peptide)
apparent height above OTS of the KIBD-CaM pattern [1]: 4.2 nm
increase of the height of the CaM layer [2]: 11.3 Å

— PMC5718999
